In patent US6964763B1, “Methods and compositions for inhibiting HIV infectivity and blocking chemokine activity” (priority 1997, dated 2005):

Tests used:
[1] = system: CD4-gp120 complex formation; test: Competitive inhibition of 125I-CD4 binding to immobilized gp120; parameters: species or system HIV-1 (MN and LAI isolates); settings: 10-fold molar excess (0.5 μM) competitor, 50 nM 125I-CD4, MN and LAI gp120
Experimental: FIG. 5 is a graph showing competitive inhibition of ^125I-CD4 binding to gp120. […] Samples were incubated, and bound TSP1 was measured as in FIG. 2. A single data set of triplicate samples (η=3, error as SD) is shown.
Radiolabeling was performed with Na[^125I]
These observations support a role for salivary TSP1 as a direct inhibitor of HIV infectivity.

[2] = biological target: recombinant HIV-1 gp160 (gp120 non-covalently linked to gp41) (Human immunodeficiency virus type 1 group M subtype B, UniProt P03375); settings: 10-fold molar excess (0.5 μM) unlabeled competitor, 50 nM 125I-TSP1
Experimental: Increasing concentrations of soluble ^125I-labeled TSP1 (1 nM-μM) were added to immobilized recombinant HIV-1 gp160 for 3 hours at 22° C., and bound TSP1 measured after extensive washing. Non-linear curve fit was generated with Excell™ version 5.0. Apparent affinity was estimated from Scatchard analysis. (n=2; error calculated as standard deviation, SD).
A fixed concentration of ^125I-labeled TSP 1(50 nM) was added to immobilized rgp 160 in the absence or presence of 10-fold molar excess (0.5 μM) unlabeled TSP1, fusion protein LFP75-155 containing the LIMPII TSP binding domain (aa 75-155), or downstream fusion protein LFP 156-243. Samples were incubated, and bound TSP 1 was measured as in FIG. 2A. Plots represent single data sets of triplicate samples. (n=3, error as SD).
Briefly, TSP1 (5-10 μg/ml) or fusion proteins and peptides (10-20 μg/ml) were immobilized on detachable 96-well microtiter plate strips (Immulon-4 Remov-a-well, Dynatech Laboratories, Inc.), by overnight incubation at 4° C. in carbonate buffer (100 mM Na2CO3/1 mM MgCl2/0.02% NaN3, pH 9.8). Washed wells were blocked with 0.5% bovine serum albumin (“BSA”), then incubated in triplicate with soluble radiolabeled ligand for 2.5 hours at 37° C. After extensive washing in 50 mM Tris pH 7.5, 150 mM NaCl, 0.5% Tween-20 (TBS-Tween), bound radioactivity was quantified by gamma counter. Radiolabeling was performed with Na[^125I] […] Specific activity of Na[^125I] was determined for each experiment, ranging from 0.06-1.0 μCi/μg. Specific binding was determined as quenchable in the presence of excess unlabeled ligand, above background binding to BSA-coated wells.

HIV-1 isolate IIIB = test: HIV-1 infectivity assay, virus pre-incubated with TSP1 or saliva, p24 ELISA day 7; type: cell-based
Experimental: HIV-1 isolate IIIB was pre-incubated in the absence of TSP1, or with various concentrations of purified TSP1 for 1 hour at 37° C. Pre-incubated virus-TSP1 mixtures were added to target cells either directly (−), or first passed through 0.2 μm filters (+). Phorbol myrisate acetate (“PMA”) activated primary peripheral blood mononuclear cells (“PBMC”), SK23 (T-cell line) or U937 (promonocytic line) were inoculated with the multiplicities of infection (“moi”) indicated. After an additional 1 hour at 37° C., infected cells were washed, cultured for 7 days, and HIV-1 p24 antigen measured by ELISA. Inhibition is expressed for a single data set as percent of maximum p24 detected in the absence of TSP1.
PMA-stimulated primary PBMC were infected with 0.02 moi HIV/IIIB that had been pre-incubated with TSP1 alone, or with LIMPII fusion protein LFP75-155 alone or in the presence of TSP1, and filtered prior to incubation as in FIG. 7. TSP-mediated inhibition is expressed as percent decrease in p24 relative to maximum p24 detected in the absence of TSP 1. Data shown represent the average of two independent experiments (error as SD). […]

Row | Molecule | inhibition of 125I-CD4 binding to immobilized gp120 [1] | inhibition of 125I-TSP1 binding to gp160 [2] | abrogation of the inhibitory effect of TSP1 by competitor (HIV-1 isolate IIIB; 1 μM LIMPII peptide, 50-100 μg/ml TSP1, PBMC, 0.02 moi) | decrease of HIV-1 infectivity, peptide alone (HIV-1 isolate IIIB; LIMPII peptide alone, PBMC)
1 | LFP75-155: GST fusion protein containing the LIMPII TSP binding domain (aa 75-155) (protein, left off: a dimerising Fc or GST) ILRGETPRVEEVGPYTYRELRNKANIQFGDNGTTISAVSNKAYVFERDQSVGDPKIDLIRTLNIPVLTVIEWSQVHFLREI | ~89% | 47±14% |  | 
2 | LIMPII peptide: LIMPII TSP-binding peptide, 10 kDa product purified after removal of GST moiety by proteolytic cleavage (protein) ILRGETPRVEEVGPYTYRELRNKANIQFGDNGTTISAVSNKAYVFERDQSVGDPKIDLIRTLNIPVLTVIEWSQVHFLREI |  |  | 83-90% | 9%
3 | LFP156-243: control GST fusion protein representing downstream LIMPII sequences (protein, left off: a dimerising Fc or GST) IEAMLKAYQQKLFVTHTVDELLWGYKDEILSLIHVFRPDISPYFGLFYEKNGTNDGDYVFLTGEDSYLNFTKIVEWNGKTSLDWWITD | 32±5% | did not |  | 
4 | CFP67-157: GST fusion protein containing the TSP1 binding domain of CD36 (aa 67-157) (protein, left off: a dimerising Fc or GST) IFDVQNPQEVMMNSSNIQVKQRGPYTYRVRFLAKENVTQDAEDNTVSFLQPNGAIFEPSLSVGTEADNFTVLNLAVAAASHIYQNQFVQMI | ~89% |  |  | 
